The target of data set [1] is T1, NF-YC9-6His (Arabidopsis thaliana, UniProt Q8L4B2 1-231).
T1 sequence: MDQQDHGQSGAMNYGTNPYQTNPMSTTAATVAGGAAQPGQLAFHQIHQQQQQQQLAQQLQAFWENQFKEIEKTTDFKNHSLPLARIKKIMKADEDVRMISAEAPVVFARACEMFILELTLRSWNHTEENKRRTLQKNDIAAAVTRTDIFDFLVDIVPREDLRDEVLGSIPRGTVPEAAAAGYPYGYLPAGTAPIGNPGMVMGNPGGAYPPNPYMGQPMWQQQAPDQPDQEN
Kind of data set: EMSA; 5 mM MgCl2, poly(dI-dC); NF-YC9 alone; 25 mM HEPES pH 8.0, 40 mM KCl, 5 mM MgCl2, 1 mM DTT, 1 mM EDTA, 8% glycerol, 1 ug/uL poly(dI-dC), 20 fmol probe, 30 min room temperature, 5% native PAGE. Particulars: protein: recombinant; tags: C-terminal 6His (codons in reverse primer); label: 5' biotin; blunt. Background: In EMSA bound probe runs differently from free probe, usually more slowly.

For data set [2], the target named is T2, ABI5-6His (Arabidopsis thaliana, UniProt Q9SJN0 1-442).
T2 sequence: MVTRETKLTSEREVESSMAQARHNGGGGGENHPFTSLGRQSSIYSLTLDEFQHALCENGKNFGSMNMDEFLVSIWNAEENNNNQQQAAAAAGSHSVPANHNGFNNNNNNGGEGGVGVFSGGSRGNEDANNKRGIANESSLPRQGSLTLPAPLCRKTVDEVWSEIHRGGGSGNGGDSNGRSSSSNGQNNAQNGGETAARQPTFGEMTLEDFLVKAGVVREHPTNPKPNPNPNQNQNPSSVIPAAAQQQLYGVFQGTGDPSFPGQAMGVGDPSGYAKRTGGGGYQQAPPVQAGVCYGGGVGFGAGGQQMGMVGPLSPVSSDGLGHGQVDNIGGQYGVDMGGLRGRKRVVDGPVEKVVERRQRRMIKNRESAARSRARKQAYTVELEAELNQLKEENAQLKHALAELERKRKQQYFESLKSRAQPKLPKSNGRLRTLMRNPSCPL
Kind of data set: EMSA; 5 mM MgCl2, poly(dI-dC); ABI5 alone, 1 ug; 25 mM HEPES pH 8.0, 40 mM KCl, 5 mM MgCl2, 1 mM DTT, 1 mM EDTA, 8% glycerol, 1 ug/uL poly(dI-dC), 20 fmol probe, 30 min room temperature, 5% native PAGE. Particulars: protein: recombinant; tags: C-terminal 6His (codons in reverse primer); chain copies: 2; label: 5' biotin; blunt.

B1: EM6 promoter probe (-277 to -220, contains pEm6.2) (dsDNA)
DNA 1: ACCACGTTCAAAGTATACGTCAGCTAATAAAGTCAGACACGTGGCATGTCACCAAGAA
DNA 2: TTCTTGGTGACATGCCACGTGTCTGACTTTATTAGCTGACGTATACTTTGAACGTGGT
Consider B1, for which the results for the binding result in data set [1] and in data set [2] were “no binding” and “binds”, respectively.
